Source: patent US20240151728A1 (KOREA INSTITUTE OF SCIENCE AND TECHNOLOGY, published 2024)
Changes are numbered by the printed parent chain.

Key:
[1] = target: T1, hMSLN recombinant protein (human mesothelin) (human, UniProt Q13421 296-598, limits assumed); assay: SPR, BIAcore T200; hMSLN amine-coupled on CM5 chip, scFv injected; 1:1 Langmuir model; mean of three experiments
T1 construct: Amine-coupled to a CM5 chip for SPR; also called recombinant mesothelin (MSLN); biotinylated hMSLN recombinant protein
T1 sequence (Q13421 other isoform, or with tags, fused parts or gaps limits assumed): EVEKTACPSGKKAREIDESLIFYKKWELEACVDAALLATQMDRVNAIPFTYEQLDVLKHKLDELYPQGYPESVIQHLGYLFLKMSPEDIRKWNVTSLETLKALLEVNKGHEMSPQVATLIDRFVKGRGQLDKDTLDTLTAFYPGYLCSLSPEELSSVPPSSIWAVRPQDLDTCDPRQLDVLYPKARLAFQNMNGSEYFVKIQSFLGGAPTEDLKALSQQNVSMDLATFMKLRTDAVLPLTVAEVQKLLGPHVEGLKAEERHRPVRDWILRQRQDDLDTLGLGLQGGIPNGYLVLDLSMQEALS
Protocol: (§1) To measure the affinity of the selected variants, surface plasmon resonance (SPR) was performed by using a BIAcore T200 device. For analysis, hMSLN was immobilized on a CM5 sensor chip by using an amine coupling method. Experiments were performed by using HBS-EP buffer, and diluted samples of each scFv variant were injected at a rate of 30 μl/min for 120 seconds and dissociated for 5 minutes. After the first experiment, 5 mM NaOH and 0.5 M arginine at pH 8.0 were sequentially injected for 30 seconds to regenerate the chip. For each scFv variant, three separate experiments were averaged to determine a dissociation constant, and each dissociation constant was determined by using a 1:1 Langmuir model in BIAevaluation 3.2 software.

[2] = target: T1, hMSLN recombinant protein (human …); assay: ELISA: 100 ng purified scFv coated per well, biotinylated hMSLN titrated, streptavidin-HRP, A450; the concentration varied is that of hMSLN
Protocol: (§2) Specifically, each well of the 96-well immune plate was coated with 100 ng of the scFv variants produced as recombinant proteins at 4° C. for 16 hours. After adding 100 μl of pH 7.4 PBS supplemented with 3% bovine serum albumin (BSA) to each well, the cells were incubated at room temperature for 1 hour, and the plate was washed three times with 350 μl of PBS-T. The biotinylated hMSLN recombinant protein was diluted to 1 μM, 200 nM, 40 nM, 8 nM, 1.6 nM, and 0.32 nM in the pH 7.4 PBS, and reacted at room temperature for 1 hour with each of the coated scFv antibodies. Afterwards, the cells were washed three times with 350 μl of PBS-T per well. Then, 50 μl of HRP-conjugated streptavidin diluted at 1:15,000 in the pH 7.4 PBS was added to the cells followed by incubation of the cells at room temperature for 1 hour, and washing three times with 350 μl of PBS-T. After adding 50 μl of TMB, the cells were incubated at room temperature for 15 minutes, the reaction was terminated by adding 50 μl of 2 M H₂SO₄, and the absorbance at 450 nm was measured.

[3] = target: T2, hMSLN recombinant protein (human mesothelin) (human, UniProt Q13421 296-598); assay: as above
T2 sequence (Q13421 other isoform, or with tags, fused parts or gaps): as the sequence (Q13421 other isoform, or with tags, fused parts or gaps limits assumed) above
Protocol: as §2

[4] = target: T2, hMSLN recombinant protein (human …); assay: SPR, BIAcore T200; hMSLN amine-coupled on CM5 chip, scFv injected; 1:1 Langmuir model; mean of three experiments
Protocol: as §1

B1: wild-type M5 scFv (DFDY) (scFv)
scFv: QVQLVQSGAEVEKPGASVKVSCKASGYTFTDYYMHWVRQAPGQGLEWMGWINPNSGGTNYAQKFQGRVTMTRDTSISTAYMELSRLRSDDTAVYYCASGWDFDYWGQGTLVTVSSGGGGSGGGGSGGGGSGGGGSDIVMTQSPSSLSASVGDRVTITCRASQSIRYYLSWYQQKPGKAPKLLIYTASILQNGVPSRFSGSGSGTDFTLTISSLQPEDFATYYCLQTYTTPDFGPGTKVEIK
notes: Recombinant protein made in E. coli BL21(DE3) and purified; also called WT M5 scFv; WT DFDY
Kd [1]: 11.2 nM
EC50 (read off the curve) [2]: ~40 nM

B2: DGAD (scFv)
chain: B1 scFv with F102G, D103A, Y104D
EC50 (read off the curve) [3]: ~40 nM

B3: M5 scFv variant DVAY (scFv)
chain: B1 scFv with F102V, D103A
Kd [4]: 121 nM
